Measurements from PMC9308819 (Nature Communications, 2022).

B1: Rep15, full length (natural N101D variant) [human] / Rab3A, purified, nucleotide-loaded [human] (parent complex)
chain 1: MGQKASQQLALKDSKEVPVVCEVVSEAIVHAAQKLKEYLGFEYPPSKLCPAANTLNEIFLIHFITFCQEKGVDEWLTTTKMTKHQAFLFGADWIWTFWGSDKQIKLQLAVQTLQMSSPPPVESKPCDLSNPESRVEESSWKKSRFDKLEEFCNLIGEDCLGLFIIFGMPGKPKDIRGVVLDSVKSQMVRSHLPGGKAVAQFVLETEDCVFIKELLRNCLSKKDGLREVGKVYISIL
chain 2: MASATDSRYGQKESSDQNFDYMFKILIIGNSSVGKTSFLFRYADDSFTPAFVSTVGIDFKVKTIYRNDKRIKLQIWDTAGQERYRTITTAYYRGAMGFILMYDITNEESFNAVQDWSTQIKTYSWDNAQVLLVGNKCDMEDERVVSSERGRQLADHLGFEFFEASAKDNINVKQTFERLVDVICEKMSESLDTADPAVTGAKQGPQLSDQQVPPHQDCAC

Variants of: B1
Test: ITC

Row | Kd [nM] | Variant
1 | 510 | chain 1 V135A

Variants of: B1
Test: ITC
Remark: another data set of the same source

Row | Kd [nM] | Variant
2 | 450 | chain 1 H84A
